Assay results as given in patent US20110263014.
Where a chain is given by its changes, count along the chain named.

How the values were obtained:
mNanog (D67G) = molecular target: T1, mNanog (D67G) (UniProt Q80Z64)
T1 sequence: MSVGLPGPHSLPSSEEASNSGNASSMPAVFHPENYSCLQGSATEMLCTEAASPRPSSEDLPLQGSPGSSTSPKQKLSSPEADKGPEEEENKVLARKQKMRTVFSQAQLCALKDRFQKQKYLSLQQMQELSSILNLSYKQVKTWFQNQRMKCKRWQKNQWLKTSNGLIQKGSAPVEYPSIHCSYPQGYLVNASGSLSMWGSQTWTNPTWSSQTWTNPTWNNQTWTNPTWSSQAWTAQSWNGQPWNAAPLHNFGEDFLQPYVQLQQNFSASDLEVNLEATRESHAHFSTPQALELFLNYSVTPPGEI

mouse Nanog (mNanog) = molecular target: T2, mouse Nanog (mNanog) (UniProt Q80Z64)
T2 sequence: T1 sequence with G67D

Question: recombinant caspase-9 was tested. Which “cleavage of immunoprecipitated mNanog (D67G) by recombinant caspase” value (mNanog (D67G)) did it give?
Answer: Mutation D67G in mNanog greatly diminished cleavage of mNanog by caspase-9

Question: What about the “cleavage of immunoprecipitated mNanog by recombinant caspase” value (mouse Nanog (mNanog)) of the same substance?
Answer: Only caspase-9 effectively cleaved mNanog into a 27 kDa fragment

Question: And the “in vitro caspase cleavage assay” value (mouse Nanog (mNanog))?
Answer: caspase-9 can effectively cleave in vitro-translated mNanog
